According to patent US20230407373A1 (priority 2020, published 2023):

B1: HNRNPM (protein, UniProt P52272 2-730, looked up)
Heterogeneous nuclear …: AAGVEAAAEVAATEIKMEEESGAPGVPSGNGAPGPKGEGERPAQNEKRKEKNIKRGGNRFEPYANPTKRYRAFITNIPFDVKWQSLKDLVKEKVGEVTYVELLMDAEGKSRGCAVVEFKMEESMKKAAEVLNKHSLSGRPLKVKEDPDGEHARRAMQKVMATTGGMGMGPGGPGMITIPPSILNNPNIPNEIIHALQAGRLGSTVFVANLDYKVGWKKLKEVFSMAGVVVRADILEDKDGKSRGIGTVTFEQSIEAVQAISMFNGQLLFDRPMHVKMDERALPKGDFFPPERPQQLPHGLGGIGMGLGPGGQPIDANHLNKGIGMGNIGPAGMGMEGIGFGINKMGGMEGPFGGGMENMGRFGSGMNMGRINEILSNALKRGEIIAKQGGGGGGGSVPGIERMGPGIDRLGGAGMERMGAGLGHGMDRVGSEIERMGLVMDRMGSVERMGSGIERMGPLGLDHMASSIERMGQTMERIGSGVERMGAGMGFGLERMAAPIDRVGQTIERMGSGVERMGPAIERMGLSMERMVPAGMGAGLERMGPVMDRMATGLERMGANNLERMGLERMGANSLERMGLERMGANSLERMGPAMGPALGAGIERMGLAMGGGGGASFDRAIEMERGNFGGSFAGSFGGAGGHAPGVARKACQIFVRNLPFDFTWKMLKDKFNECGHVLYADIKMENGKSKGCGVVKFESPEVAERACRMMNGMKLSGREIDVRIDRNA
B2: CNBP: host protein, UniProt P62633 (protein, UniProt P62633 2-177, looked up)
CCHC-type zinc finger nucleic …: SSNECFKCGRSGHWARECPTGGGRGRGMRSRGRGGFTSDRGFQFVSSSLPDICYRCGESGHLAKDCDLQEDACYNCGRGGHIAKDCKEPKREREQCCYNCGKPGHLARDCDHADEQKCYSCGEFGHIQKDCTKVKCYRCGETGHVAINCSKTSEVNCYRCGESGHLARECTIEATA
B3: EWSR1: host protein, UniProt Q01644 (protein, UniProt Q01844 1-656, looked up)
RNA-binding protein EWS: MASTDYSTYSQAAAQQGYSAYTAQPTQGYAQTTQAYGQQSYGTYGQPTDVSYTQAQTTATYGQTAYATSYGQPPTGYTTPTAPQAYSQPVQGYGTGAYDTTTATVTTTQASYAAQSAYGTQPAYPAYGQQPAATAPTRPQDGNKPTETSQPQSSTGGYNQPSLGYGQSNYSYPQVPGSYPMQPVTAPPSYPPTSYSSTQPTSYDQSSYSQQNTYGQPSSYGQQSSYGQQSSYGQQPPTSYPPQTGSYSQAPSQYSQQSSSYGQQSSFRQDHPSSMGVYGQESGGFSGPGENRSMSGPDNRGRGRGGFDRGGMSRGGRGGGRGGMGSAGERGGFNKPGGPMDEGPDLDLGPPVDPDEDSDNSAIYVQGLNDSVTLDDLADFFKQCGVVKMNKRTGQPMIHIYLDKETGKPKGDATVSYEDPPTAKAAVEWFDGKDFQGSKLKVSLARKKPPMNSMRGGLPPREGRGMPPPLRGGPGGPGGPGGPMGRMGGRGGDRGGFPPRGPRGSRGNPSGGGNVQHRAGDWQCPNPGCGNQNFAWRTECNQCKAPKPEGFLPPPFPPPGGDRGRGGPGGMRGGRGGLMDRGGPGGMFRGGRGGDRGGFRGGRGMDRGGFGGGRRGGPGGPPGPLMEQMGGRRGGRGGPGKMDKGEHRQERRDRPY
B4: U2AF2 (protein, UniProt P26368 2-475, looked up)
Splicing factor U2AF 65 kDa …: SDFDEFERQLNENKQERDKENRHRKRSHSRSRSRDRKRRSRSRDRRNRDQRSASRDRRRRSKPLTRGAKEEHGGLIRSPRHEKKKKVRKYWDVPPPGFEHITPMQYKAMQAAGQIPATALLPTMTPDGLAVTPTPVPVVGSQMTRQARRLYVGNIPFGITEEAMMDFFNAQMRLGGLTQAPGNPVLAVQINQDKNFAFLEFRSVDETTQAMAFDGIIFQGQSLKIRRPHDYQPLPGMSENPSVYVPGVVSTVVPDSAHKLFIGGLPNYLNDDQVKELLTSFGPLKAFNLVKDSATGLSKGYAFCEYVDINVTDQAIAGLNGMQLGDKKLLVQRASVGAKNATLVSPPSTINQTPVTLQVPGLMSSQVQMGGHPTEVLCLMNMVLPEELLDDEEYEEIVEDVRDECSKYGLVKSIEIPRPVDGVEVPGCGKIFVEFTSVFDCQKAMQGLTGRKFANRVVVTKYCDPDSYHRRDFW
B5: PSPC1: host protein, UniProt Q8WXF1 (protein, UniProt Q8WXF1 1-523, looked up)
Paraspeckle component 1: MMLRGNLKQVRIEKNPARLRALESAVGESEPAAAAAMALALAGEPAPPAPAPPEDHPDEEMGFTIDIKSFLKPGEKTYTQRCRLFVGNLPTDITEEDFKRLFERYGEPSEVFINRDRGFGFIRLESRTLAEIAKAELDGTILKSRPLRIRFATHGAALTVKNLSPVVSNELLEQAFSQFGPVEKAVVVVDDRGRATGKGFVEFAAKPPARKALERCGDGAFLLTTTPRPVIVEPMEQFDDEDGLPEKLMQKTQQYHKEREQPPRFAQPGTFEFEYASRWKALDEMEKQQREQVDRNIREAKEKLEAEMEAARHEHQLMLMRQDLMRRQEELRRLEELRNQELQKRKQIQLRHEEEHRRREEEMIRHREQEELRRQQEGFKPNYMENREQEMRMGDMGPRGAINMGDAFSPAPAGNQGPPPMMGMNMNNRATIPGPPMGPGPAMGPEGAANMGTPMMPDNGAVHNDRFPQGPPSQMGSPMGSRTGSETPQAPMSGVGPVSGGPGGFGRGSQGGNFEGPNKRRRY
B6: THRAP3: host protein, UniProt Q9Y2W1 (protein, UniProt Q9Y2W1 2-955, looked up)
Thyroid hormone …: SKTNKSKSGSRSSRSRSASRSRSRSFSKSRSRSRSLSRSRKRRLSSRSRSRSYSPAHNRERNHPRVYQNRDFRGHNRGYRRPYYFRGRNRGFYPWGQYNRGGYGNYRSNWQNYRQAYSPRRGRSRSRSPKRRSPSPRSRSHSRNSDKSSSDRSRRSSSSRSSSNHSRVESSKRKSAKEKKSSSKDSRPSQAAGDNQGDEAKEQTFSGGTSQDTKASESSKPWPDATYGTGSASRASAVSELSPRERSPALKSPLQSVVVRRRSPRPSPVPKPSPPLSSTSQMGSTLPSGAGYQSGTHQGQFDHGSGSLSPSKKSPVGKSPPSTGSTYGSSQKEESAASGGAAYTKRYLEEQKTENGKDKEQKQTNTDKEKIKEKGSFSDTGLGDGKMKSDSFAPKTDSEKPFRGSQSPKRYKLRDDFEKKMADFHKEEMDDQDKDKAKGRKESEFDDEPKFMSKVIGANKNQEEEKSGKWEGLVYAPPGKEKQRKTEELEEESFPERSKKEDRGKRSEGGHRGFVPEKNFRVTAYKAVQEKSSSPPPRKTSESRDKLGAKGDFPTGKSSFSITREAQVNVRMDSFDEDLARPSGLLAQERKLCRDLVHSNKKEQEFRSIFQHIQSAQSQRSPSELFAQHIVTIVHHVKEHHFGSSGMTLHERFTKYLKRGTEQEAAKNKKSPEIHRRIDISPSTFRKHGLAHDEMKSPREPGYKAEGKYKDDPVDLRLDIERRKKHKERDLKRGKSRESVDSRDSSHSRERSAEKTEKTHKGSKKQKKHRRARDRSRSSSSSSQSSHSYKAEEYTEETEEREESTTGFDKSRLGTKDFVGPSERGGGRARGTFQFRARGRGWGRGNYSGNNNNNSNNDFQKRNREEEWDPEYTPKSKKYYLHDDREGEGSDKWVSRGRGRGAFPRGRGRFMFRKSSTSPKWAHDKFSGEEGEIEDDESGTENREEKDNIQPTTE

Each molecule was assayed on SARS-CoV-2 gRNA. Conditions: […]; LC-MS/MS; Probe I sample (first 199 lines of Table 2).
Type: binding

Molecule | target (unweighted spectral count of the protein in the RNP capture)
B1 | 71
B2 | 74
B3 | 9
B4 | 7
B5 | 7
B6 | 7

Each molecule was assayed on SARS-CoV-2 gRNA and sgRNAs. Conditions: Probe II capture; […]; LC-MS/MS LFQ.
Type: binding

Molecule | target (unweighted spectral count in RNP capture)
B1 | 53
B2 | 44
B3 | 7
B5 | 10

Same assay, conditions: […]; LC-MS/MS label-free quantification; probe pool not given

Molecule | target (unweighted spectral count of the protein in the RNP capture experiment)
B4 | 6
B6 | 6

Same assay, conditions: no-probe control pull-down, used as background for Probe II

Molecule | background (unweighted spectral count in control)
B1 | 1
B2 | 1
B3 | 1
B5 | 1

Same assay, conditions: protein background of the control (e.g. no-probe) experiment; […]

Molecule | back-ground (unweighted spectral count of the protein in the control experiment)
B4 | 1
B6 | 1

Each molecule was assayed on gRNA of HCoV-OC43. Conditions: type g_36_m; HCoV-OC43-infected HCT-8 cells, 36 hpi, Probe I.
Type: binding

Molecule | target (spectral count)
B2 | 15
B5 | 12
B6 | 8

Same assay, conditions: type g_36_m; uninfected-probe control, 36 hpi, Probe I

Molecule | background (spectral count)
B2 | 2
B5 | 1
B6 | 1

Same assay, conditions: type n_48_v: 48 hours post-infection, infected cells, OC43 Probe I; unweighted spectral count

Molecule | target (spectral count, OC43 Probe I RNP capture)
B1 | 65
B2 | 22
B3 | 8
B4 | 8
B5 | 20
B6 | 10

Same assay, conditions: type n_48_v: 48 hours post-infection, no-probe control on infected cells

Molecule | background (spectral count, no-probe control)
B1 | 7
B2 | 2
B3 | 1
B4 | 1
B5 | 1
B6 | 2

Each molecule was assayed on HCoV-OC43 gRNA and sgRNA. Conditions: 36 hpi; type n_36_v; tested against no-probe control; FDR<10%.
Type: binding

Molecule | target (unweighted spectral count, OC43 Probe II capture)
B1 | 73
B2 | 14
B3 | 9
B4 | 6
B5 | 14
B6 | 12

Same assay, conditions: OC43 Probe II, 12 hpi (type n_12_v), infected cells; tested against no-probe control

Molecule | target (unweighted spectral count)
B1 | 22
B2 | 5
B4 | 5
B5 | 4

Same assay, conditions: OC43 Probe II, 24 hpi (type n_24_v), infected cells; tested against no-probe control

Molecule | target (unweighted spectral count)
B1 | 34
B2 | 12
B3 | 6
B5 | 8

Same assay, conditions: type n_48_v; 48 hpi; OC43 Probe II capture on infected cells

Molecule | target (unweighted spectral count, OC43 Probe II)
B2 | 19
B3 | 10
B4 | 12
B5 | 14
B6 | 13

Same assay, conditions: type n_48_v; 48 hpi; no-probe control on infected cells

Molecule | background (unweighted spectral count, no-probe control)
B2 | 2
B3 | 1
B4 | 1
B5 | 1
B6 | 2

Same assay, conditions: type s_36_m; HCoV-OC43-infected HCT-8 cells, 36 hpi, Probe II

Molecule | target (spectral count)
B3 | 9
B5 | 14

Same assay, conditions: type s_36_m; uninfected-probe control, 36 hpi, Probe II

Molecule | background (spectral count)
B3 | 1
B5 | 1
